Experimental findings from patent US12195506B2, “Immunotherapy with A*01 restricted peptides and combination of peptides against cancers and related methods” (Immatics Biotechnologies GmbH, priority 2018, dated 2025) are described below.

This experiment concerns the target HLA-A*01:01 (Homo sapiens, UniProt P04439, A114D/A174V/A182V/D101N/D185E/E176A/E190D/L180R/Q94H/R68K/S129P/T187R/V100A/V91M/W191G). The experiment in a line: MHC binding assay: UV-ligand exchange, ELISA of stabilized MHC complexes (peptide exchange yield). Conditions: binding to HLA-A*01:01, UV-ligand exchange. The source says:
Candidate peptides for T cell based therapies according to the present invention were further tested for their MHC binding capacity (affinity). The individual peptide-MHC complexes were produced by UV-ligand exchange, where a UV-sensitive peptide is cleaved upon UV-irradiation and exchanged with the peptide of interest as analyzed. Only peptide candidates that can effectively bind and stabilize the peptide-receptive MHC molecules prevent dissociation of the MHC complexes. To determine the yield of the exchange reaction, an ELISA was performed based on the detection of the light chain (β2m) of stabilized MHC complexes. The assay was performed as generally described in Rodenko et al. (Rodenko et al., 2006)
96 well MAXISorp plates (NUNC) were coated over night with 2 ug/ml streptavidin in PBS at room temperature, washed 4× and blocked for 1 h at 37° C. in 2% BSA containing blocking buffer. Refolded HLA-A*02:01/MLA-001 monomers served as standards, covering the range of 15-500 ng/ml. Peptide-MHC monomers of the UV-exchange reaction were diluted 100-fold in blocking buffer. Samples were incubated for 1 h at 37° C., washed four times, incubated with 2 ug/ml HRP conjugated anti-β2m for 1 h at 37° C., washed again and detected with TMB solution that is stopped with […]. Absorption was measured at 450 nm.
(In general: An ELISA detects its analyte on a solid surface through an enzyme-linked reagent.)
With “167 (RAVQPGETY; listed as Homo sapiens) [compound 167]”, the Peptide exchange entry is recorded as “+++ (>50 = +++)”.

As for “168 (VQPGETYTY; listed as Homo sapiens) [compound 168]”, the Peptide exchange result is reported as “+++ (>50 = +++)”.

Consider “169 (TVDNANILL; listed as Homo sapiens) [compound 169]”, for which the Peptide exchange result is reported as “++ (>20% = ++)”.

Consider “170 (VQIAKGMNY; listed as Homo sapiens) [compound 170]”, for which the Peptide exchange entry was “+++ (>50 = +++)”.

For “171 (ITDFGLAKL; listed as Homo sapiens) [compound 171]”, the Peptide exchange entry was “++ (>20% = ++)”.

Turning to “172 (FSEPFHLIV; listed as Homo sapiens) [compound 172]”, the Peptide exchange entry is on record as “+++ (>50 = +++)”.

For “173 (QSTTGVSHY; listed as Homo sapiens) [compound 173]”, the Peptide exchange entry is listed as “+++ (>50 = +++)”.

Take “174 (TSEVEGLAFVSY; listed as Homo sapiens) [compound 174]”: the Peptide exchange result is listed as “+++ (>50 = +++)”.

For “175 (GLEYEAPKLY; listed as Homo sapiens) [compound 175]”, the Peptide exchange entry was “++ (>20% = ++)”.

For the substance “176 (HTDLESPSAVY; listed as Homo sapiens) [compound 176]”, the Peptide exchange result is recorded as “+++ (>50 = +++)”.

For “177 (LVDGKWQEF; listed as Homo sapiens) [compound 177]”, the Peptide exchange entry is given as “++ (>20% = ++)”.

Consider “178 (TQRTSFQFY; listed as Homo sapiens) [compound 178]”, for which the Peptide exchange result is reported as “++ (>20% = ++)”.

For “179 (SSTDFTFASW; listed as Homo sapiens) [compound 179]”, the Peptide exchange result was “+ (>10% =+)”.

Regarding “180 (AQISDTGRY; listed as Homo sapiens) [compound 180]”, the Peptide exchange result is “++ (>20% = ++)”.

Regarding “181 (SVTDLIGGKW; listed as Homo sapiens) [compound 181]”, the Peptide exchange entry is “++ (>20% = ++)”.

With “182 (TQPELSSRY; listed as Homo sapiens) [compound 182]”, the Peptide exchange result is reported as “++ (>20% = ++)”.

Consider “183 (LADTDLGMTF; listed as Homo sapiens) [compound 183]”, for which the Peptide exchange result is “++ (>20% = ++)”.

Turning to “184 (KTIQEVAGY; listed as Homo sapiens) [compound 184]”, the Peptide exchange result is recorded as “++ (>20% = ++)”.

Take “185 (NSDESADSEPHKY; listed as Homo sapiens) [compound 185]”: the Peptide exchange result was “++++ (>75% = ++++)”.

“186 (AVSSGLFFY; listed as Homo sapiens) [compound 186]”: the Peptide exchange result is on record as “++ (>20% = ++)”.

“187 (TQKSVQVLAY; listed as Homo sapiens) [compound 187]”: the Peptide exchange result is on record as “++ (>20% = ++)”.

Take “188 (DIPDYLLQY; listed as Homo sapiens) [compound 188]”: the Peptide exchange result is “+++ (>50 = +++)”.

As to “189 (FRGVFVHRY; listed as Homo sapiens) [compound 189]”, the Peptide exchange result is on record as “++ (>20% = ++)”.

In the case of “190 (VSSTVHNLY; listed as Homo sapiens) [compound 190]”, the Peptide exchange entry is recorded as “++++ (>75% = ++++)”.

Turning to “191 (FTRAFDQLRM; listed as Homo sapiens) [compound 191]”, the Peptide exchange result is given as “+++ (>50 = +++)”.

Regarding “192 (LAFYYGMY; listed as Homo sapiens) [compound 192]”, the Peptide exchange result was “++ (>20% = ++)”.

Consider “193 (SQNGQLIHY; listed as Homo sapiens) [compound 193]”, for which the Peptide exchange entry is listed as “+++ (>50 = +++)”.

As to “194 (CYTADNEMGY; listed as Homo sapiens) [compound 194]”, the Peptide exchange entry is listed as “+++ (>50 = +++)”.

In the case of “195 (YTADNEMGYY; listed as Homo sapiens) [compound 195]”, the Peptide exchange entry is on record as “+++ (>50 = +++)”.

On to “196 (RLAQYTIERY; listed as Homo sapiens) [compound 196]”, for which the Peptide exchange result is listed as “++ (>20% = ++)”.

For the substance “197 (NDEIDKLTGY; listed as Homo sapiens) [compound 197]”, the Peptide exchange result was “++++ (>75% = ++++)”.

Consider “198 (KLTDYINANY; listed as Homo sapiens) [compound 198]”, for which the Peptide exchange result is “++ (>20% = ++)”.

Turning to “199 (LCAAVLAKY; listed as Homo sapiens) [compound 199]”, the Peptide exchange entry was “++ (>20% = ++)”.

In the case of “200 (SLPEFGLTY; listed as Homo sapiens) [compound 200]”, the Peptide exchange entry is “++ (>20% = ++)”.

With “201 (SLPEFGLTYY; listed as Homo sapiens) [compound 201]”, the Peptide exchange entry was “++ (>20% = ++)”.

In the case of “202 (QTDINGGSLK; listed as Homo sapiens) [compound 202]”, the Peptide exchange entry is “+++ (>50 = +++)”.

In the case of “203 (LSQDELSKF; listed as Homo sapiens) [compound 203]”, the Peptide exchange entry is “++ (>20% = ++)”.

On to “204 (NVKEAPTEY; listed as Homo sapiens) [compound 204]”, for which the Peptide exchange entry is “++ (>20% = ++)”.

Take “205 (RMQEGSEVY; listed as Homo sapiens) [compound 205]”: the Peptide exchange result is recorded as “++ (>20% = ++)”.

With “207 (LLEGEDAHLTQY; listed as Homo sapiens) [compound 207]”, the Peptide exchange result is recorded as “+++ (>50 = +++)”.

For the substance “208 (LLISKAEDY; listed as Homo sapiens) [compound 208]”, the Peptide exchange entry was “++ (>20% = ++)”.

For the substance “209 (EADPFLKYL; listed as Homo sapiens) [compound 209]”, the Peptide exchange entry was “++ (>20% = ++)”.

Turning to “210 (LLEADPFLKY; listed as Homo sapiens) [compound 210]”, the Peptide exchange result was “++++ (>75% = ++++)”.

Turning to “211 (YLNEWGSRF; listed as Homo sapiens) [compound 211]”, the Peptide exchange entry was “++ (>20% = ++)”.

For the substance “212 (MMTDLTSVY; listed as Homo sapiens) [compound 212]”, the Peptide exchange entry is reported as “+++ (>50 = +++)”.

With “213 (VSDSTTEITY; listed as Homo sapiens) [compound 213]”, the Peptide exchange result is reported as “+++ (>50 = +++)”.

Regarding “214 (VQDPSLPVY; listed as Homo sapiens) [compound 214]”, the Peptide exchange result is listed as “++ (>20% = ++)”.

Consider “215 (DTLEAATSLY; listed as Homo sapiens) [compound 215]”, for which the Peptide exchange result is reported as “++ (>20% = ++)”.

As for “216 (NSMLDPLVY; listed as Homo sapiens) [compound 216]”, the Peptide exchange result was “++++ (>75% = ++++)”.

For the substance “217 (LMDEGAVLTL; listed as Homo sapiens) [compound 217]”, the Peptide exchange entry is reported as “++ (>20% = ++)”.

Regarding “218 (FTAQLQLY; listed as Homo sapiens) [compound 218]”, the Peptide exchange entry is reported as “+++ (>50 = +++)”.

For “219 (KTELETALYY; listed as Homo sapiens) [compound 219]”, the Peptide exchange entry is recorded as “+++ (>50 = +++)”.

For “220 (DVERIKDTY; listed as Homo sapiens) [compound 220]”, the Peptide exchange entry was “++ (>20% = ++)”.

Take “221 (TDVERIKDTY; listed as Homo sapiens) [compound 221]”: the Peptide exchange entry was “+++ (>50 = +++)”.

For the substance “222 (GSPDAVVSY; listed as Homo sapiens) [compound 222]”, the Peptide exchange result was “+ (>10% =+)”.

As to “223 (NAVDVVPSSF; listed as Homo sapiens) [compound 223]”, the Peptide exchange entry is given as “+ (>10% =+)”.

Turning to “224 (RTDEGDNRVW; listed as Homo sapiens) [compound 224]”, the Peptide exchange result is “++ (>20% = ++)”.

With “225 (STDPNIVRK; listed as Homo sapiens) [compound 225]”, the Peptide exchange result is given as “+++ (>50 = +++)”.

Take “226 (QITPKHNGLY; listed as Homo sapiens) [compound 226]”: the Peptide exchange result is recorded as “++ (>20% = ++)”.

Regarding “227 (ESAPKEVSRY; listed as Homo sapiens) [compound 227]”, the Peptide exchange entry is “++ (>20% = ++)”.

For “228 (KSFDDIAKY; listed as Homo sapiens) [compound 228]”, the Peptide exchange entry was “++ (>20% = ++)”.

On to “229 (MTDVFIDY; listed as Homo sapiens) [compound 229]”, for which the Peptide exchange entry was “+++ (>50 = +++)”.

For the substance “230 (CVIETFHKY; listed as Homo sapiens) [compound 230]”, the Peptide exchange entry was “+++ (>50 = +++)”.

For “231 (LLPLLVMAY; listed as Homo sapiens) [compound 231]”, the Peptide exchange entry was “++ (>20% = ++)”.

On to “232 (RYLNIVHATQLY; listed as Homo sapiens) [compound 232]”, for which the Peptide exchange entry is listed as “++ (>20% = ++)”.

Consider “233 (RINSATGQY; listed as Homo sapiens) [compound 233]”, for which the Peptide exchange result is “++ (>20% = ++)”.

For “234 (YTDLTTIQV; listed as Homo sapiens) [compound 234]”, the Peptide exchange result was “++++ (>75% = ++++)”.
